# From the Immune Epitope Database (IEDB)
# How the values were obtained:
# HLA-B*38:01 = experiment: IEDB peptide-MHC binding, purified MHC/direct/fluorescence; filed as Kd, often an IC50 or EC50 that approximates it; ≥ and ≤ were set here for values at or beyond the usual limits of such assays; conditions: source organism: Vibrio vulnificus YJ016
# HLA-B*46:01 = experiment: as above
# HLA-B*15:09 = experiment: as above; conditions: source organism: Vibrio vulnificus YJ016
# HLA-A*03:01 = experiment: as above
# HLA-A*11:01 = experiment: as above
# HLA-B*57:01 = experiment: as above
# HLA-B*15:01 = experiment: as above
# HLA-A*31:01 = experiment: as above
# HLA-B*48:01 = experiment: as above; conditions: source organism: Vibrio vulnificus YJ016
# HLA-B*40:01 = experiment: as above
# HLA-A*26:01 = experiment: as above
# HLA-B*27:05 = experiment: as above
# HLA-B*58:01 = experiment: as above
# HLA-A*01:01 = experiment: as above
# HLA-B*15:17 [1] = experiment: as above; conditions: source organism: Vibrio vulnificus YJ016
# HLA-A*02:01 [2] = experiment: IEDB peptide-MHC binding, purified MHC/competitive/fluorescence; filed as Kd, often an IC50 or EC50 that approximates it; ≥ and ≤ were set here for values at or beyond the usual limits of such assays; conditions: source organism: Vibrio vulnificus YJ016
# HLA-B*08:01 [3] = experiment: as above; conditions: source organism: Vibrio vulnificus YJ016
# HLA-A*69:01 [4] = experiment: as above; conditions: source organism: Vibrio vulnificus YJ016
# HLA-B*18:01 [5] = experiment: as above; conditions: source organism: Vibrio vulnificus YJ016
# HLA-B*39:01 = experiment: as above; conditions: source organism: Vibrio vulnificus YJ016
# HLA-A*30:01 = experiment: as above; conditions: source organism: Vibrio vulnificus YJ016
# HLA-A*02:06 = experiment: as above
# HLA-C*04:01 = experiment: IEDB peptide-MHC binding, purified MHC/direct/fluorescence; filed as Kd, often an IC50 or EC50 that approximates it; ≥ and ≤ were set here for values at or beyond the usual limits of such assays
# HLA-A*02:01 [6] = experiment: as above
# HLA-A*02:11 = experiment: as above; conditions: source organism: Amur virus Solovey/AP63/1999
# HLA-A*02:12 = experiment: as above; conditions: source organism: Amur virus Solovey/AP63/1999
# HLA-C*07:02 = experiment: as above; conditions: source organism: Hantaan virus 76-118
# HLA-A*80:01 = experiment: as above
# HLA-B*08:01 [7] = experiment: as above
# HLA-B*08:02 = experiment: as above; conditions: source organism: Influenza A virus H3N2
# HLA-A*69:01 [8] = experiment: as above
# HLA-B*07:02 = experiment: as above
# HLA-A*24:02 [9] = experiment: as above
# HLA-B*18:01 [10] = experiment: as above
# HLA-A*24:02 [11] = experiment: IEDB peptide-MHC binding, purified MHC/competitive/fluorescence; filed as Kd, often an IC50 or EC50 that approximates it; ≥ and ≤ were set here for values at or beyond the usual limits of such assays; conditions: source organism: Shigella flexneri 5 str. 8401
# HLA-B*44:02 = experiment: IEDB peptide-MHC binding, purified MHC/direct/fluorescence; filed as Kd, often an IC50 or EC50 that approximates it; ≥ and ≤ were set here for values at or beyond the usual limits of such assays
# HLA-A*02:50 = experiment: IEDB peptide-MHC binding, purified MHC/competitive/fluorescence; filed as Kd, often an IC50 or EC50 that approximates it; ≥ and ≤ were set here for values at or beyond the usual limits of such assays; conditions: source organism: Shigella boydii CDC 3083-94
# HLA-A*24:03 = experiment: IEDB peptide-MHC binding, purified MHC/direct/fluorescence; filed as Kd, often an IC50 or EC50 that approximates it; ≥ and ≤ were set here for values at or beyond the usual limits of such assays; conditions: source organism: Influenza A virus (A/Hong Kong/516/97(H5N1))
# HLA-A*68:02 = experiment: as above; conditions: source organism: Influenza A virus (A/Hong Kong/516/97(H5N1))
# HLA-A*26:02 = experiment: IEDB peptide-MHC binding, purified MHC/competitive/fluorescence; filed as Kd, often an IC50 or EC50 that approximates it; ≥ and ≤ were set here for values at or beyond the usual limits of such assays; conditions: source organism: Influenza A virus (A/Fort Monmouth/1/1947-mouse adapted(H1N1))
# HLA-B*15:17 [12] = experiment: as above; conditions: source organism: Influenza A virus (A/Fort Monmouth/1/1947-mouse adapted(H1N1))
# [13] = source organism: Vibrio vulnificus YJ016
# [14] = source organism: Burkholderia mallei
# [15] = source organism: Influenza A virus (A/Switzerland/8808/2002(H1N1))
# [16] = source organism: Influenza A virus (A/Puerto Rico/8/34/Mount Sinai(H1N1))
# [17] = source organism: Francisella tularensis subsp. holarctica LVS
# [18] = source organism: Escherichia coli O157:H7
# [19] = source organism: Influenza A virus (A/Hong Kong/516/97(H5N1))
sequence,measurement,setting,value
EPADHLAIM,Kd,HLA-B*38:01,≥ 20 µM
same,Kd,HLA-B*46:01; [13],≥ 20 µM
same,Kd,HLA-B*15:09,≥ 20 µM
same,Kd,HLA-A*03:01; [13],≥ 20 µM
same,Kd,HLA-A*11:01; [13],≥ 20 µM
same,Kd,HLA-B*57:01; [13],≥ 20 µM
same,Kd,HLA-B*15:01; [13],≥ 20 µM
same,Kd,HLA-A*31:01; [13],≥ 20 µM
same,Kd,HLA-B*48:01,≥ 20 µM
same,Kd,HLA-B*40:01; [13],≥ 20 µM
same,Kd,HLA-A*26:01; [13],0.047 µM
same,Kd,HLA-B*27:05; [13],≥ 20 µM
same,Kd,HLA-B*58:01; [13],≥ 20 µM
same,Kd,HLA-A*01:01; [13],≥ 20 µM
same,Kd,HLA-B*15:17 [1],≥ 20 µM
same,Kd,HLA-A*02:01 [2],0.691 µM
same,Kd,HLA-B*08:01 [3],≥ 20 µM
same,Kd,HLA-A*69:01 [4],≥ 20 µM
same,Kd,HLA-B*18:01 [5],3 µM
same,Kd,HLA-B*39:01,1.21 µM
same,Kd,HLA-A*30:01,≥ 20 µM
same,Kd,HLA-A*02:06; [13],≥ 20 µM
STEFIPNLF,Kd,HLA-C*04:01; source organism: human gammaherpesvirus 4,≥ 20 µM
SMLSYGNVL,Kd,HLA-A*02:01 [6]; source organism: Amur virus,≤ 0.001 µM
same,Kd,HLA-A*02:11,0.003 µM
same,Kd,HLA-A*02:12,0.075 µM
same,Kd,HLA-C*07:02,0.614 µM
ALRRRTGTR,Kd,HLA-A*01:01; [14],≥ 20 µM
same,Kd,HLA-A*80:01; [14],≥ 20 µM
VPAQNAIST,Kd,HLA-A*02:01 [6]; [15],≥ 20 µM
same,Kd,HLA-B*08:01 [7]; [15],≥ 20 µM
same,Kd,HLA-B*46:01; [15],≥ 20 µM
same,Kd,HLA-A*03:01; [15],≥ 20 µM
same,Kd,HLA-A*11:01; [15],≥ 20 µM
same,Kd,HLA-B*15:01; [15],≥ 20 µM
same,Kd,HLA-B*08:02,≥ 20 µM
same,Kd,HLA-A*69:01 [8]; [15],≥ 20 µM
same,Kd,HLA-A*31:01; [15],≥ 20 µM
same,Kd,HLA-B*07:02; [16],0.063 µM
same,Kd,HLA-A*24:02 [9]; [15],≥ 20 µM
same,Kd,HLA-B*40:01; [15],≥ 20 µM
same,Kd,HLA-A*26:01; source organism: Influenza A virus H3N2,≥ 20 µM
same,Kd,HLA-B*27:05; [15],≥ 20 µM
same,Kd,HLA-B*18:01 [10]; [15],≥ 20 µM
same,Kd,HLA-B*58:01; [15],≥ 20 µM
same,Kd,HLA-A*01:01; [15],≥ 20 µM
LTDKSGSEY,Kd,HLA-A*01:01; [17],0.0012 µM
same,Kd,HLA-A*80:01; [17],0.29 µM
VSITNPFLF,Kd,HLA-C*04:01; source organism: Shigella flexneri 5 str. 8401,≥ 20 µM
same,Kd,HLA-A*24:02 [11],0.0057 µM
GMAEDLQSL,Kd,HLA-A*02:01 [6]; [18],0.0657 µM
same,Kd,HLA-A*03:01; [18],≥ 20 µM
same,Kd,HLA-A*11:01; [18],≥ 20 µM
same,Kd,HLA-B*15:01; [18],0.39 µM
same,Kd,HLA-A*69:01 [8]; [18],1 µM
same,Kd,HLA-A*31:01; [18],≥ 20 µM
same,Kd,HLA-B*07:02; [18],≥ 20 µM
same,Kd,HLA-A*24:02 [9]; [18],≥ 20 µM
same,Kd,HLA-B*40:01; [18],≥ 20 µM
same,Kd,HLA-B*44:02; [18],≥ 20 µM
same,Kd,HLA-B*27:05; [18],≥ 20 µM
same,Kd,HLA-B*18:01 [10]; [18],≥ 20 µM
same,Kd,HLA-B*58:01; [18],≥ 20 µM
same,Kd,HLA-A*01:01; [18],≥ 20 µM
same,Kd,HLA-A*02:50,≤ 0.0001 µM
SYINRTGTF,Kd,HLA-A*02:01 [6]; [19],≥ 20 µM
same,Kd,HLA-A*24:03,0.0018 µM
same,Kd,HLA-B*08:01 [7]; [19],≥ 20 µM
same,Kd,HLA-A*03:01; [19],≥ 20 µM
same,Kd,HLA-A*11:01; [19],≥ 20 µM
same,Kd,HLA-B*57:01; [19],≥ 20 µM
same,Kd,HLA-B*15:01; [16],0.584 µM
same,Kd,HLA-A*69:01 [8]; [19],≥ 20 µM
same,Kd,HLA-A*31:01; [19],≥ 20 µM
same,Kd,HLA-B*07:02; [19],≥ 20 µM
same,Kd,HLA-A*24:02 [9]; [19],0.0054 µM
same,Kd,HLA-B*40:01; [19],≥ 20 µM
same,Kd,HLA-A*26:01; [19],≥ 20 µM
same,Kd,HLA-B*44:02; [19],≥ 20 µM
same,Kd,HLA-B*27:05; [19],≥ 20 µM
same,Kd,HLA-B*18:01 [10]; [19],≥ 20 µM
same,Kd,HLA-B*58:01; [19],≥ 20 µM
same,Kd,HLA-A*68:02,≥ 20 µM
same,Kd,HLA-A*01:01; [19],≥ 20 µM
same,Kd,HLA-A*26:02,3.67 µM
same,Kd,HLA-B*15:17 [12],0.477 µM
same,Kd,HLA-A*02:06; source organism: Influenza A virus (A/Fort Monmouth/1/1947-mouse adapted(H1N1)),≥ 20 µM
